Residue numbers refer to the chain shown, from its start. Numbers in names are those of the source.
B1: MBP-Stv1NT-FLAG (cytosolic N-terminal domain of the yeast Golgi V-ATPase Vo a-subunit isoform Stv1, aa 1-418) (domain or fragment, S. cerevisiae, UniProt P37296 1-418, looked up)
chain: MNQEEAIFRSADMTYVQLYIPLEVIREVTFLLGKMSVFMVMDLNKDLTAFQRGYVNQLRRFDEVERMVGFLNEVVEKHAAETWKYILHIDDEGNDIAQPDMADLINTMEPLSLENVNDMVKEITDCESRARQLDESLDSLRSKLNDLLEQRQVIFECSKFIEVNPGIAGRATNPEIEQEERDVDEFRMTPDDISETLSDAFSFDDETPQDRGALGNDLTRNQSVEDLSFLEQGYQHRYMITGSIRRTKVDILNRILWRLLRGNLIFQNFPIEEPLLEGKEKVEKDCFIIFTHGETLLKKVKRVIDSLNGKIVSLNTRSSELVDTLNRQIDDLQRILDTTEQTLHTELLVIHDQLPVWSAMTKREKYVYTTLNKFQQESQGLIAEGWVPSTELIHLQDSLKDYIETLGSEYSTVFNVIL
B2: MBP-Stv1NT(K84A)-FLAG (domain or fragment, S. cerevisiae, UniProt P37296 1-418, looked up)
chain: B1 chain with K84A

Molecular target: the molecule itself
Assay: SEC

Protein | binding result
B1 | binds
B2 | binds
